In general, share remaining refers to the share of the starting amount still present when the sample was taken. Low readings indicate a greater loss, high ones greater stability.

Positions of bridges follow the written chain, without caps; N, C: chain ends. Non-standard residues stand in square brackets, D forms with d. Residues, ends and D or L forms follow the SMILES beside them. *: point of attachment. DOTA = O=C(O)CN1CCN(CC(=O)O)CCN(CC(=O)*)CCN(CC(=O)O)CC1

This is an account of results in PMC13142116, “Development and structure-guided characterization of a novel ACE2-binding macrocyclic peptide” (Journal of Structural Biology: X, 2026).

A short description of one series: in vitro. It is filed as in vitro ADME. The following applies: mouse, plasma. Here is the method:
Additionally, the integrity of [^67Ga]Ga-DOTA-WJL-63 (20 MBq/nmol) in mouse and human blood plasma (Rockland Immunochemicals, Inc. PA, USA and Blood donation SRK Aargau-Solothurn, Switzerland) was determined using thin layer chromatography (TLC). Reversed phase C-18 plates (TLC Silica gel 60 RP-18; Merck) were used as the stationary phase and a mixture of citrate buffer (pH 5.5; 0.1 M) and acetonitrile (7:3; v/v) as the mobile phase. Under these conditions, uncoordinated gallium-67 migrated with the front while the radiopeptide and potential larger fragments migrated to the center of the plate. […] The quantification of the signals was carried out using the OptiQuant software (version 5.0, Bright Instrument Co Ltd., PerkinElmer). The obtained chromatograms were analyzed by determination of the peak area of the radiolabeled peptide, the released gallium-67 as well as degradation products of unknown structure. The quantity of the intact product was expressed as the percentage of the sum of integrated peak areas of the entire chromatogram and set in relation to the value determined at the respective timepoints of the radiopeptide diluted in saline which was set as 100% to correct for TLC artefacts. The results were then expressed as average ± SD from n = 3 independent experiments.

Series [1] is classed as physicochemical. Here is the method:
The distribution coefficient (logD value) of [^67Ga]Ga-DOTA-WJL-63 was determined using a shake-flask method as previously reported for DX600 radiopeptides ([Beyer et al., 2023]). The distribution coefficients were indicated as the average of n = 3 independent measurements ± standard deviation (SD), each performed with five replicates.

In “in vitro”, `CC[C@H](C)[C@@H]1NC(=O)[C@H](CCC(N)=O)NC(=O)[C@H]([C@@H](C)O)NC(=O)[C@H](CO)NC(=O)[C@@H](Cc2ccc(O)cc2)NC(=O)CSC[C@@H](C(=O)NCC(=O)N[C@@H](CO)C(=O)NCC(=O)N[C@@H](CO)C(=O)NCC(=O)N[C@@H](CO)C(=O)N[C@@H](CCCCNC(=O)CN2CCN(CC(=O)O)CCN(CC(=O)O)CCN(CC(=O)O)CC2)C(N)=O)NC(=O)CNC(=O)[C@H](CCCNC(=N)N)NC(=O)[C@H](CO)NC(=O)[C@H](CC(=O)O)NC(=O)[C@H](CCCNC(=N)N)NC(=O)[C@H]([C@@H](C)O)NC(=O)[C@H](Cc2ccccc2)NC(=O)CNC(=O)[C@H](CCCNC(=N)N)NC(=O)[C@H](CO)NC1=O` [[^67Ga]Ga-DOTA-WJL-63, metal not drawn] ({CH2CO}-[dY]STQISRGFTRDSRGCGSGSGSK(DOTA)-NH2; thioether N-16) yielded a fraction remaining at 1 h, 10 MBq/200 µL of 91% and a fraction remaining at 3 h, 10 MBq/200 µL of 69%. Moreover, the logD value result in series [1] is on record as “− 4.4 ± 0.1”.
